Literature values, collected in article PMC10818705.

Target: Tyr109 (UniProt position 129, EGEHFYFFCTF)

In the case of “Azurin, His107/Tyr109 (Lys122) hopping variant (Pseudomonas aeruginosa; W48F;Y72F;Y108F;H83Q;Q107H;M109Y)”, the pKa is listed as 10.2 ± 0.3.
